T1: human hepcidin (mature, 25 amino acids) (human, mono-biotinylated in the ELISAs and on the KinExA beads (site not stated); unlabelled in solution and on the BIAcore chip)
T1 construct: the form is named in each assay field; also called rhuHepc; rhHepc
T1 peptide: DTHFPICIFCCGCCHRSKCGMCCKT


What was measured:
[1] = target: T1, human hepcidin (mature, 25 amino acids); test: antibody at 1:250 dilution; KinExA / BIAcore named in the paragraph
[2] = target: T1, human hepcidin (mature, 25 amino acids); test: ELISA, mono-biotinylated human hepcidin on Neutravidin plate, pH 7.4
Protocol: (§1) Differential pH binding of the antibodies listed above in Table 3 was then determined by ELISA. 50 μL of Neutravidin (Pierce) at 8 μg/mL in 1×PBS was coated upon a Nunc Maxisorp 384-well plate, and incubated at 37° C. for 1 hr. After blocking the wells with 0.1% BSA/PBS/0.05% Tween20 for 1 hour at room temperature, plates were washed six times with PBS/0.05% Tween20. 25 μL of mono-biotinylated hepcidin at 50 ng/mL in 0.1% BSA/PBS/0.05% Tween20 was added to the 384-well plate, and incubated at room temperature for 1 hour. The plates were next washed six times with PBS/0.05% Tween20. Starting hepcidin antibody concentrations were normalized to 1 μg/mL for pH 5.5 and 6.0 conditions and to 100 ng/mL for pH 7.4 conditions. The hepcidin antibodies were serially diluted 3-fold in PBS/1% NFDM pH 7.4 and 4-fold in PBS/1% NFDM pH 6.0 and 5.5. The dilutions and titrations were performed in polypropylene 96-well dilution plates, and then were transferred in duplicate to a Neutravidin-coated 384-well plate. The biotinylated hepcidin and antibodies were incubated for 2 hours at room temperature. The plate was next washed six times with PBS/0.05% Tween20. 25 μL it of goat anti-huIgG-horseradish peroxidase at a 1:7000 dilution in 0.1% BSA/PBS/0.05% Tween20 was next added to each well of the assay plate. The plate was finally washed six times in PBS/0.05% Tween20. Enhanced K-Blue 3,3′,5,5′-Tetramethylbenzidine (TMB) Substrate (Neogen) was added and the reaction stopped using 1 M H₃PO₄ after 10 minutes of incubation at room temperature. The absorption was measured at 450 nm on a plate reader. Binding data were analyzed by non-linear regression analysis (sigmoidal dose-response, variable slope) to generate EC₅₀ values using GraphPad Prism® software. […] Double combinations of these mutants were made.

[3] = target: T1, human hepcidin (mature, 25 amino acids); test: ELISA, mono-biotinylated human hepcidin on Neutravidin plate, pH 5.5
Protocol: as §1

[4] = target: T1, human hepcidin (mature, 25 amino acids); test: ELISA, mono-biotinylated human hepcidin on Neutravidin plate, pH 6.0
Protocol: as §1

[5] = target: T1, human hepcidin (mature, 25 amino acids); test: KinExA solution equilibrium, human hepcidin-coated beads
Protocol: SA-Sepharose beads were pre-coated with biotinylated human hepcidin (SEQ ID NO: 9) and blocked with BSA according to manufacturer's instructions. Antibodies and hepcidin were diluted in PBS/0.1% BSA/0.05% NaN₃ buffer. Fixed concentrations of antibodies 15E1, 15E1 W52H, 15E1 A99H, 15E1 N521-1, 15E1 A107H and 18B11 were incubated with various concentrations of human hepcidin at room temperature for 8 hours before being run through the human hepcidin-coated beads. The amount of the bead-bound antibody was quantified by fluorescently (Cy5)-labeled goat anti-murine-IgG (H+L) antibody (Jackson Immuno Research, West Grove, Pa.). The binding signal is proportional to the concentration of free antibody at equilibrium. Dissociation equilibrium constant (KD) was obtained from nonlinear regression of the competition curves using a dual-curve one-site homogeneous binding model (KinExATM Pro software).

[6] = target: T1, human hepcidin (mature, 25 amino acids); test: ELISA, mono-biotinylated human hepcidin on Neutravidin plate, pH 6.0 against pH 7.4
Protocol: as §1

Binder	fold reduction in affinity at pH 6 compared to pH 7.4 [1]	EC50 [2]	EC50 [3]	EC50 [4]	Kd [5]	fold increase in EC50 as the pH was lowered to 6.0 [6]
antibody 19B8 (antibody, V domains shown, Human antibody from Xenomouse IgG2 or IgG4 mice) VH: QVHLQQWGAGPLKPSETLSLTCAVYNGSFSGYYWSWIRQPPGKGLDWIGDINHSGNTKYNPSLKSRVTISVDTAKNQFSLKLSSVTAADTAVYYCARGDFWSGFDWFDPWGQGTLVTVSS VL: QSALTQPASVSGSPGQSITISCTGTSSNVGTYKLVSWYQQHPGKAPKLMISEVSKRPSGLSNRFSGSKSGNTASLTISGLQAEDEADYYCSSYAGDSTLVFGGGTKLTVL	~10 fold	–	–	–	–	–
antibody 15E1 (wild type) (antibody, V domains shown, Human antibody) VH: QVQLVESGGGVVQPGRSLRLSCAASGFTFSSYGMHWVRQAPGKGLEWVAVIWYAESNKYYADSVKGRFTISRDNSKNTLYLQMNSLRAEDTAVYYCARAQEGIAPDAFDIWGQGTMVTVSS VL: SYELTQPPSVSVSPGQTATITCSGDKLGERYACWYQQRPGQSPVLVIYQDSKRPSGIPERFSGSNSGNTATLTISGTQAMDEADYFCQAWYSSTNVLFGGGTKLTVL	–	2.3 ng/mL	2.3 ng/mL	2.3 ng/mL	0.037 nM	–
15E1 W52H (antibody, V domains shown, Histidine mutant of 15E1, transiently expressed in 293-6E cells; constant regions as in wild-type 15E1; also called W52H (heavy chain)) VH: QVQLVESGGGVVQPGRSLRLSCAASGFTFSSYGMHWVRQAPGKGLEWVAVIHYAESNKYYADSVKGRFTISRDNSKNTLYLQMNSLRAEDTAVYYCARAQEGIAPDAFDIWGQGTMVTVSS VL: SYELTQPPSVSVSPGQTATITCSGDKLGERYACWYQQRPGQSPVLVIYQDSKRPSGIPERFSGSNSGNTATLTISGTQAMDEADYFCQAWYSSTNVLFGGGTKLTVL	–	4.5 ng/mL	17 ng/mL	5.8 ng/mL	–	≥ 1.5 fold
15E1 L27H (antibody, V domains shown, Histidine mutant of 15E1, transiently expressed in 293-6E cells; constant regions as in wild-type 15E1; also called L27H (light chain)) VH: QVQLVESGGGVVQPGRSLRLSCAASGFTFSSYGMHWVRQAPGKGLEWVAVIWYAESNKYYADSVKGRFTISRDNSKNTLYLQMNSLRAEDTAVYYCARAQEGIAPDAFDIWGQGTMVTVSS VL: SYELTQPPSVSVSPGQTATITCSGDKHGERYACWYQQRPGQSPVLVIYQDSKRPSGIPERFSGSNSGNTATLTISGTQAMDEADYFCQAWYSSTNVLFGGGTKLTVL	–	4.5 ng/mL	8 ng/mL	6.5 ng/mL	–	≥ 1.5 fold
15E1 A107H L27H (antibody, V domains shown, Double histidine mutant of 15E1 (one change in each chain); constant regions as in wild-type 15E1; also called A107H (heavy chain)/L27H (light chain)) VH: QVQLVESGGGVVQPGRSLRLSCAASGFTFSSYGMHWVRQAPGKGLEWVAVIWYAESNKYYADSVKGRFTISRDNSKNTLYLQMNSLRAEDTAVYYCARAQEGIAPDHFDIWGQGTMVTVSS VL: SYELTQPPSVSVSPGQTATITCSGDKHGERYACWYQQRPGQSPVLVIYQDSKRPSGIPERFSGSNSGNTATLTISGTQAMDEADYFCQAWYSSTNVLFGGGTKLTVL	–	4.3 ng/mL	316 ng/mL	19.3 ng/mL	–	≥ 5.5 fold
15E1 A107H A89H (antibody, V domains shown, Double histidine mutant of 15E1 (one change in each chain); constant regions as in wild-type 15E1; also called A107H (heavy chain)/A89H (light chain)) VH: QVQLVESGGGVVQPGRSLRLSCAASGFTFSSYGMHWVRQAPGKGLEWVAVIWYAESNKYYADSVKGRFTISRDNSKNTLYLQMNSLRAEDTAVYYCARAQEGIAPDHFDIWGQGTMVTVSS VL: SYELTQPPSVSVSPGQTATITCSGDKLGERYACWYQQRPGQSPVLVIYQDSKRPSGIPERFSGSNSGNTATLTISGTQAMDEADYFCQHWYSSTNVLFGGGTKLTVL	–	6 ng/mL	–	34.7 ng/mL	–	≥ 5.5 fold
15E1 N57H A107H (antibody, V domains shown, Double histidine mutant of 15E1; constant regions as in wild-type 15E1; also called A107H (heavy chain)/N57H (heavy chain)) VH: QVQLVESGGGVVQPGRSLRLSCAASGFTFSSYGMHWVRQAPGKGLEWVAVIWYAESHKYYADSVKGRFTISRDNSKNTLYLQMNSLRAEDTAVYYCARAQEGIAPDHFDIWGQGTMVTVSS VL: SYELTQPPSVSVSPGQTATITCSGDKLGERYACWYQQRPGQSPVLVIYQDSKRPSGIPERFSGSNSGNTATLTISGTQAMDEADYFCQAWYSSTNVLFGGGTKLTVL	–	7.3 ng/mL	–	75.6 ng/mL	–	≥ 5.5 fold
15E1 A99H A107H (antibody, V domains shown, Double histidine mutant of 15E1; constant regions as in wild-type 15E1; also called A107H (heavy chain)/A99H (heavy chain)) VH: QVQLVESGGGVVQPGRSLRLSCAASGFTFSSYGMHWVRQAPGKGLEWVAVIWYAESNKYYADSVKGRFTISRDNSKNTLYLQMNSLRAEDTAVYYCARHQEGIAPDHFDIWGQGTMVTVSS VL: SYELTQPPSVSVSPGQTATITCSGDKLGERYACWYQQRPGQSPVLVIYQDSKRPSGIPERFSGSNSGNTATLTISGTQAMDEADYFCQAWYSSTNVLFGGGTKLTVL	–	3 ng/mL	16.1 ng/mL	5.5 ng/mL	–	≥ 5.5 fold
15E1 A89H (antibody, V domains shown, Histidine mutant of 15E1, transiently expressed in 293-6E cells; constant regions as in wild-type 15E1; also called A89H (light chain)) VH: QVQLVESGGGVVQPGRSLRLSCAASGFTFSSYGMHWVRQAPGKGLEWVAVIWYAESNKYYADSVKGRFTISRDNSKNTLYLQMNSLRAEDTAVYYCARAQEGIAPDAFDIWGQGTMVTVSS VL: SYELTQPPSVSVSPGQTATITCSGDKLGERYACWYQQRPGQSPVLVIYQDSKRPSGIPERFSGSNSGNTATLTISGTQAMDEADYFCQHWYSSTNVLFGGGTKLTVL	–	5.4 ng/mL	12 ng/mL	10.6 ng/mL	–	≥ 1.5 fold

The next lines start with the values.

fold reduction in affinity at pH 6 compared to pH 7.4 [1]	EC50 [2]	EC50 [3]	EC50 [4]	Kd [5]	fold increase in EC50 as the pH was lowered to 6.0 [6]	Binder
~10 fold	–	–	–	–	–	antibody 24E4 (antibody, V domains shown, Human antibody from Xenomouse IgG2 or IgG4 mice) VH: QVQLVQSGAEVKEPGASVKVSCKASGYTFTSYGVSWVRQAPGQGLEWMGWISAYNGNTLYAQHLLGRVTMTTDTSTSTAYMELRSLRSDDTAVYYCAREDLGMGDYWGQGTLVTVSS VL: QSVLTQPPSVSGAPGQRVTISCTGSSSNIGAGYGVYWYQQLPGTAPKLLIYGHNNRPSGVPDRFSGSKSDTSASLAITGLQAEDEADYYCQSYDSNLIGSVFGTGTKVTVL
~10 fold	–	–	–	–	–	antibody 22H10 (antibody, V domains shown, Human antibody from Xenomouse IgG2 or IgG4 mice) VH: QVHLQQWGAGPLKPSETLSLTCAVYNGSFSGYYWSWIRQPPGKGLEWIGDINHSGNTKYNPSLKSRVTISVDTAKNQFSLKLSSVTAADTAVYYCARGDFWSGFDWFDPWGQGTLVTVSS VL: QSALTQPASVSGSPGQSITISCTGTSSNVGTYKLVSWYQQHPDKAPKLIISEVSKRPSGLSNRFSGSKSGNTASLTISGLQAEDEVDYYCSSYAGDSTLVFGGGTKLTVL
~10 fold	–	–	–	–	–	antibody 20E12 (antibody, V domains shown, Human antibody from Xenomouse IgG2 or IgG4 mice) VH: QVQLQQWGAGPLKPSETLSLTCAVYGGSFSGYYWSWIRQPPGKGLEWIGDINHSGNTKYNPSLKSRVTISVDTSKNQFSLKLNSVTAADTAVYYCARGDFWSGFDWFDPWGQGTLVTVSS VL: QSALTQPASVSGSPGQSITISCTGTSSNVGSYNLVSWYQQHPGKAPKLMLSEVSKRPSGLSSRFSGSKSGDTASLTISGLQAEDEADYYCCSYAGSSTLVFGGGTKLTVL
~10 fold	–	–	–	–	–	antibody 23A11 (antibody, V domains shown, Human antibody from Xenomouse IgG2 or IgG4 mice) VH: QVHLQQWGAGPLKPSETLSLTCAVYNGSFSGYYWSWIRQPPGKGLEWIGDINHSGNTKYNPSLKSRVTISVDTAKNQFSLKLNSVTAADTAVYYCARGDFWSGFDWFDPWGQGTLVTVSS VL: QSALTQPASVSGSPGQSITISCTGTSSNVGTYKLVSWYQQHPGKAPKLMISEVSKRPSGLSNRFSGSKSGNTASLTISGLQAEDEADYYCSSYAGDSTLIVGGGTKLTVL
~10 fold	–	–	–	–	–	antibody 22F12 (antibody, V domains shown, Human antibody from Xenomouse IgG2 or IgG4 mice) VH: QVQLQQWGAGPLKPSETLSLTCAVYGGSFSGYYWSWIRQPPGKGLEWIGDINHSGNTKYNPSLKSRVTISVDTSKNHFSLKLSSVTAADTAVYYCARGDFWSGFDWFDPWGQGTLVTVSS VL: QSALTQPASVSGSPGQSITISCTGTSSNVGSYNLVSWYQKHPGKAPKLMISEVSKRPSGLSNRFSGSKSGNTASLTISGLQAEDEADYYCCSYAGSSTLVFGGGTKLTVL

Source: patent US20110150888A1 (Amgen, published 2011)
